Assay [1] addresses D3H44 Fab heavy chain L124E_L143E_K145M, C-terminal ABD2-His6 tag. Nature of the assay: LCCA set 9253 (co-expression; SPR read-out of light-chain tags; L1:L2 DNA 1:3, normalized to 1:1); competing light chain m11.
Assay [2] concerns the target D3H44 Fab heavy chain L124R_S186K, C-terminal ABD2-His6 tag. The assay can be described thus: LCCA set 9473 (co-expression; SPR read-out of light-chain tags; L1:L2 DNA 1:3, normalized to 1:1); competing light chain m10.
Assay [3] has the same target. The assay can be described thus: LCCA set 9484 (co-expression; SPR read-out of light-chain tags; L1:L2 DNA 1:3, normalized to 1:1); competing light chain m13.
Assay [4] deals with D3H44 Fab heavy chain L124E_L143E_K145M, C-terminal ABD2-His6 tag. The assay can be described thus: LCCA co-expression, SPR tag read-out; DNA 1:3 norm. to 1:1; competing light chain m8.
The target in assay [5] is D3H44 Fab heavy chain L124R_S186K, C-terminal ABD2-His6 tag. The description is as above.
The target of assay [6] is D3H44 Fab heavy chain L124E_L143E_K145T, C-terminal ABD2-His6 tag. The assay is described as above.
The target in assay [7] is D3H44 Fab heavy chain L124E_L143D_K145T, C-terminal ABD2-His6 tag. Nature of the assay: LCCA set 9217 (co-expression; SPR read-out of light-chain tags; L1:L2 DNA 1:3, normalized to 1:1); competing light chain m10.
The target of assay [8] is D3H44 Fab heavy chain L124R_S186R, C-terminal ABD2-His6 tag. Nature of the assay: LCCA (co-expression, SPR read-out of light chain tags), L1:L2 DNA 1:3 normalised to 1:1; competitor m10.
In assay [9] the target is D3H44 Fab heavy chain L124E_L143E_K145T, C-terminal ABD2-His6 tag. The description is as above.
Assay [10] deals with D3H44 Fab heavy chain L124E_L143D_K145M, C-terminal ABD2-His6 tag. The assay can be described thus: LCCA set 9199 (co-expression; SPR read-out of light-chain tags; L1:L2 DNA 1:3, normalized to 1:1); competing light chain m13.
Assay [11] deals with D3H44 Fab heavy chain L124E_L143D_K145T, C-terminal ABD2-His6 tag. Nature of the assay: LCCA (co-expression, SPR read-out of light chain tags), L1:L2 DNA 1:3 normalised to 1:1; competitor m11.
Assay [12] addresses D3H44 Fab heavy chain L124R_S186K, C-terminal ABD2-His6 tag. The assay is described as above.
The target in assay [13] is D3H44 Fab heavy chain L124R_S186R, C-terminal ABD2-His6 tag. Nature of the assay: LCCA set 9526 (co-expression; SPR read-out of light-chain tags; L1:L2 DNA 1:3, normalized to 1:1); competing light chain m11.
The target in assay [14] is D3H44 Fab heavy chain L124R_Q179K, C-terminal ABD2-His6 tag. Nature of the assay: LCCA (co-expression, SPR read-out of light chain tags), L1:L2 DNA 1:3 normalised to 1:1; competitor m13.
In assay [15] the target is D3H44 Fab heavy chain L124E_L143D_K145M, C-terminal ABD2-His6 tag. Described as above.
The target of assay [16] is D3H44 Fab heavy chain L124E_L143D_K145T, C-terminal ABD2-His6 tag. Nature of the assay: LCCA (co-expression, SPR read-out of light chain tags), L1:L2 DNA 1:3 normalised to 1:1; competitor m14.
Assay [17] deals with D3H44 Fab heavy chain L124R_Q179K, C-terminal ABD2-His6 tag. Described as above.
For assay [18], the target named is D3H44 Fab heavy chain L124E_L143D_K145M, C-terminal ABD2-His6 tag. Described as above.
The target in assay [19] is D3H44 Fab heavy chain L124E_L143E_K145M, C-terminal ABD2-His6 tag. Nature of the assay: LCCA co-expression, SPR tag read-out; DNA 1:3 norm. to 1:1; competing light chain m12.
The target in assay [20] is D3H44 Fab heavy chain L124E_L143E_K145T, C-terminal ABD2-His6 tag. The assay is described as above.
In assay [21] the target is D3H44 Fab heavy chain L124R_Q179K, C-terminal ABD2-His6 tag. The assay is described as above.
The target in assay [22] is D3H44 Fab heavy chain L124E_L143E_K145T, C-terminal ABD2-His6 tag. Nature of the assay: LCCA set 9271 (co-expression; SPR read-out of light-chain tags; L1:L2 DNA 1:3, normalized to 1:1); competing light chain m17.
For assay [23], the target named is D3H44 Fab heavy chain L124E_L143E_K145M, C-terminal ABD2-His6 tag. Nature of the assay: LCCA co-expression, SPR tag read-out; DNA 1:3 norm. to 1:1; competing light chain m11.
Assay [24] concerns the target D3H44 Fab heavy chain L124E_L143D_K145T, C-terminal ABD2-His6 tag. Described as above.
Assay [25] addresses D3H44 Fab heavy chain L124E_L143E_K145T, C-terminal ABD2-His6 tag. The assay is described as above.
The target of assay [26] is D3H44 Fab heavy chain L124R_Q179K, C-terminal ABD2-His6 tag. Described as above.
Assay [27] has as its target D3H44 Fab heavy chain L124E_L143E_K145T, C-terminal ABD2-His6 tag. Nature of the assay: LCCA co-expression, SPR tag read-out; DNA 1:3 norm. to 1:1; competing light chain m14.
The target in assay [28] is D3H44 Fab heavy chain L124R_Q179K, C-terminal ABD2-His6 tag. The description is as above.
The target of assay [29] is D3H44 Fab heavy chain L124R_D146N_Q179K, C-terminal ABD2-His6 tag. Nature of the assay: LCCA set 9350 (co-expression; SPR read-out of light-chain tags; L1:L2 DNA 1:3, normalized to 1:1); competing light chain m17.
Assay [30] deals with D3H44 Fab heavy chain L124R_S186K, C-terminal ABD2-His6 tag. The assay can be described thus: LCCA set 9451 (co-expression; SPR read-out of light-chain tags; L1:L2 DNA 1:3, normalized to 1:1); competing light chain m10.
The target of assay [31] is D3H44 Fab heavy chain L124E_L143D_K145T, C-terminal ABD2-His6 tag. The assay can be described thus: LCCA set 9214 (co-expression; SPR read-out of light-chain tags; L1:L2 DNA 1:3, normalized to 1:1); competing light chain m10.
Assay [32] concerns the target D3H44 Fab heavy chain L124R_S186R, C-terminal ABD2-His6 tag. Nature of the assay: LCCA set 9505 (co-expression; SPR read-out of light-chain tags; L1:L2 DNA 1:3, normalized to 1:1); competing light chain m10.
Assay [33] addresses D3H44 Fab heavy chain L124E_L143D_K145M, C-terminal ABD2-His6 tag. The assay can be described thus: LCCA set 9196 (co-expression; SPR read-out of light-chain tags; L1:L2 DNA 1:3, normalized to 1:1); competing light chain m13.
Assay [34] concerns the target D3H44 Fab heavy chain L124R_S186R, C-terminal ABD2-His6 tag. The assay can be described thus: LCCA co-expression, SPR tag read-out; DNA 1:3 norm. to 1:1; competing light chain m8.
In assay [35] the target is D3H44 Fab heavy chain L124E_L143E_K145M, C-terminal ABD2-His6 tag. The assay can be described thus: LCCA (co-expression, SPR read-out of light chain tags), L1:L2 DNA 1:3 normalised to 1:1; competitor m10.
Assay [36] has as its target D3H44 Fab heavy chain L124R_S186K, C-terminal ABD2-His6 tag. The assay is described as above.
The target of assay [37] is D3H44 Fab heavy chain L124E_L143D_K145M, C-terminal ABD2-His6 tag. Nature of the assay: LCCA set 9176 (co-expression; SPR read-out of light-chain tags; L1:L2 DNA 1:3, normalized to 1:1); competing light chain m10.
For assay [38], the target named is D3H44 Fab heavy chain L124R_S186R, C-terminal ABD2-His6 tag. Nature of the assay: LCCA (co-expression, SPR read-out of light chain tags), L1:L2 DNA 1:3 normalised to 1:1; competitor m11.
For assay [39], the target named is D3H44 Fab heavy chain L124E_L143D_K145M, C-terminal ABD2-His6 tag. The description is as above.
In assay [40] the target is D3H44 Fab heavy chain L124R_S186K, C-terminal ABD2-His6 tag. The assay can be described thus: LCCA set 9461 (co-expression; SPR read-out of light-chain tags; L1:L2 DNA 1:3, normalized to 1:1); competing light chain m13.
The target in assay [41] is D3H44 Fab heavy chain L124E_L143E_K145M, C-terminal ABD2-His6 tag. The assay can be described thus: LCCA set 9257 (co-expression; SPR read-out of light-chain tags; L1:L2 DNA 1:3, normalized to 1:1); competing light chain m10.

In the case of “D3H44 light chain V133G_S176D_T178D_T180E, N-terminal HA or FLAG tag”, the H1L1:H1L2 normalized median ratio (H1L2 part) in assay [1] was 5%; in assay [7], 18%; in assay [10], 13%. For the same substance, the figures for the H2L2:H2L1 normalized median ratio (H2L2 part) in assay [2], in [3] and in assay [13] were 93%, 92% and 80%, respectively. Further, the H1L1:H1L2 normalized median ratio (% (ratio normalized to 100)) amounted to 5 in assay [4] and 4 in [6]. Besides, in assay [5], the H2L2:H2L1 normalized median ratio (% (ratio normalized to 100)) amounted to 90. The H2L2:H2L1 normalized median ratio in assay [8] came to 80%; in assay [12], 92%. Besides, the H1L1:H1L2 normalized median ratio in assay [9] stood at 4%; in assay [11] it was 11%.

“D3H44 light chain Q124K_V133G_Q160K_S176R, N-terminal HA or FLAG tag”: the H2L2:H2L1 normalized median ratio in [14] and in assay [17] was 8% throughout. Further, the H1L1:H1L2 normalized median ratio worked out at 91% in assay [15], 92% in [16] and 92% in assay [18]. For the same substance, the H1L1:H1L2 normalized median scalar value ln(r1/f1) turned out to be 2.36 in [15]; 2.92 in assay [20]; 2.92 in [22]; 2.72 in [23]; 2.69 in assay [24]; 3 in assay [25]. The H1L1:H1L2 normalized median ratio (% (ratio normalized to 100)) came out at 92 in assay [19]; 95 in assay [20]; 94 in assay [23]; 94 in [24]; 95 in assay [25]; 94 in assay [27]. In addition, the figures for the H2L2:H2L1 normalized median ratio (% (ratio normalized to 100)) in assay [21], in assay [26] and in assay [28] were 8, 8 and 10, respectively. Also, the H1L1:H1L2 normalized median ratio (H1L1 part) in [22] is 95%. Further, in assay [29], the H2L2:H2L1 normalized median ratio (H2L1 part) came to 18%.

Consider “D3H44 light chain Q124E_V133G_S176D_T178D_T180E, N-terminal HA or FLAG tag”, for which the H2L2:H2L1 normalized median ratio (H2L2 part) turned out to be 93% in [30], 94% in assay [32] and 89% in assay [40]. For the same substance, the H1L1:H1L2 normalized median ratio (H1L2 part) in [31] was found to be 15%; in assay [33], 12%; in assay [37], 17%; in [41] it was 16%. The results for the H1L1:H1L2 normalized median ratio (% (ratio normalized to 100)) in assay [4] and in assay [6] were 5 and 4, respectively. The H2L2:H2L1 normalized median ratio (% (ratio normalized to 100)) in assay [34] was found to be 88. The H1L1:H1L2 normalized median ratio came to 5% in assay [35], 4% in assay [9], 14% in [11] and 12% in assay [39]. Also, the H2L2:H2L1 normalized median ratio worked out at 82% in assay [36] and 94% in assay [38].

These data come from US11306156.
